Measured values: US20210290678A1 (published 2021)

Tests used:
[1] = target: T1, murine PTK7 (murine, UniProt Q8BKG3 23-1062); assay: flow cytometry cell binding titration; 3T3L1 murine cells; unit from dose axis
T1 chain: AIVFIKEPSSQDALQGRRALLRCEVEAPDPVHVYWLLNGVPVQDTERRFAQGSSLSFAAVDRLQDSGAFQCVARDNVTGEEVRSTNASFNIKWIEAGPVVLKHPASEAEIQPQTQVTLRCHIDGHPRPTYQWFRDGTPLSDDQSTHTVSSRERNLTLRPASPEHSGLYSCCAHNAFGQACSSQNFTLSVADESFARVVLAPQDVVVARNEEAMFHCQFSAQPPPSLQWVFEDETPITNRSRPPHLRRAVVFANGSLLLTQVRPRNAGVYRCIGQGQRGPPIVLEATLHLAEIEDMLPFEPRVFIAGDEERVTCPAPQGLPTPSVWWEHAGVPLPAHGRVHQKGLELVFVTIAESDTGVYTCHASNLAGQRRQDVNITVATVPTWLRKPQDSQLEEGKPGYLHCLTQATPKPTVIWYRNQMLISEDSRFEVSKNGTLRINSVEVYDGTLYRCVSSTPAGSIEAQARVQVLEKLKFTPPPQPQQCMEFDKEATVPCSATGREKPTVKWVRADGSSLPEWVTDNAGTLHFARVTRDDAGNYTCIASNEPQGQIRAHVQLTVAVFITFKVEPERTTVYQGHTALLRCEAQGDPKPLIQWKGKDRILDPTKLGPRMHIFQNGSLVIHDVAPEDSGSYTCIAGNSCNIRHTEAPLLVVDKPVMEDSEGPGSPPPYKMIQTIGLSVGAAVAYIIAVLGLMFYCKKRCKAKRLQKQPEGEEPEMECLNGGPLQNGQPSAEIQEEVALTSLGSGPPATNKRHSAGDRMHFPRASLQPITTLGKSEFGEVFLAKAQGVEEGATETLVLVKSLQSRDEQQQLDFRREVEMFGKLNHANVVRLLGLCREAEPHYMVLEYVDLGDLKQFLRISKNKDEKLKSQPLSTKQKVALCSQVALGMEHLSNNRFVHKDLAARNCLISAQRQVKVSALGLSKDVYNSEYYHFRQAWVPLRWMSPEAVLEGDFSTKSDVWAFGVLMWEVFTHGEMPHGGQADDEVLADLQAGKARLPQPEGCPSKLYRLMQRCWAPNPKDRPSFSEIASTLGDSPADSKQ

[2] = target: T2, human protein tyrosine kinase 7 (PTK7) (human, UniProt Q13308 31-1070); assay: flow cytometry cell binding titration; HCC70 human cells; unit from dose axis
T2 chain: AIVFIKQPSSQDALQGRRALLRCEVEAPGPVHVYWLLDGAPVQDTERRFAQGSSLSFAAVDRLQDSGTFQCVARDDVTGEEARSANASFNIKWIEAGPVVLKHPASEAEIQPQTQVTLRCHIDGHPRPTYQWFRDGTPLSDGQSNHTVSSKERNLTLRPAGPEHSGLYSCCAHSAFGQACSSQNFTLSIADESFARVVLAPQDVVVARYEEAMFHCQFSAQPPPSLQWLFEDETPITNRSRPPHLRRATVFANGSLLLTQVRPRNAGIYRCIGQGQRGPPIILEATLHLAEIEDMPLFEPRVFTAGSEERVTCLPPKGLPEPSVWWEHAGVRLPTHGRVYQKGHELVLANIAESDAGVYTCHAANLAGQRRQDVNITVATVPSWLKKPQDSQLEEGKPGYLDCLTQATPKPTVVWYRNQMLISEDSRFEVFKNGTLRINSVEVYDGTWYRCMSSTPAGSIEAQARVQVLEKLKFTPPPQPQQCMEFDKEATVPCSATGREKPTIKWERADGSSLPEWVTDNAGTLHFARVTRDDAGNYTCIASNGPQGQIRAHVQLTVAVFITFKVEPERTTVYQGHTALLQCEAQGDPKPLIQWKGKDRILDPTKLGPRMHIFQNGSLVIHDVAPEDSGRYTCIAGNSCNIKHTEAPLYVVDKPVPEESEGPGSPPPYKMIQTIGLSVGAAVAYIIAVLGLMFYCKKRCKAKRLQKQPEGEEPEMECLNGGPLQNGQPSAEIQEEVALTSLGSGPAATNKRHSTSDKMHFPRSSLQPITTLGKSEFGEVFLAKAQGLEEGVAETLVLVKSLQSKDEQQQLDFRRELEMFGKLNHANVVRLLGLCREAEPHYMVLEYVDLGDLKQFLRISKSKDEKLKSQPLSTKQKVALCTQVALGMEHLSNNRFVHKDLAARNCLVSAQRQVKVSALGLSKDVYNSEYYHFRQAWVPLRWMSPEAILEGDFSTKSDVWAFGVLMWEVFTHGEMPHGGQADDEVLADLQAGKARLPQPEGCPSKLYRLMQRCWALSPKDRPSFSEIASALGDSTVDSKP

Kd [1]: 0.662 nM
B1: CTX181 mAb (custom recombinant monoclonal anti-PTK7 antibody, Creative Biolabs) (antibody, V domains shown)
VH: QVQLVESGGGVVQPGRSLRLSCAASGFTFSSYGMHWVRQAPGKGLEWVAVIWDDGSNKYYVDSVKGRFTISRDNSKNTLYLQMNSLRAEDTAVYYCARDDYYGSGSFNSYYGTDVWGQGTTVTVSS
VL: EIVLTQSPATLSLSPGERATLSCRASQSVSIYLAWYQQKPGQAPRLLIYDASNRATGIPARFSGSGSGTDFTLTISSLEPEDFAVYYCQQRSNWPPFTFGPGTKVDIKR
Kd [2]: 1.53 nM
